As usually defined, the EC50 is the concentration at which the effect is half-maximal. The low end stands for an effect from little substance, the high end for a need for much substance.

The target of experiment [1] is T1, human FcγRIIB (NM_004001) expressed on cells (human, UniProt P31994 43-310).
T1 sequence: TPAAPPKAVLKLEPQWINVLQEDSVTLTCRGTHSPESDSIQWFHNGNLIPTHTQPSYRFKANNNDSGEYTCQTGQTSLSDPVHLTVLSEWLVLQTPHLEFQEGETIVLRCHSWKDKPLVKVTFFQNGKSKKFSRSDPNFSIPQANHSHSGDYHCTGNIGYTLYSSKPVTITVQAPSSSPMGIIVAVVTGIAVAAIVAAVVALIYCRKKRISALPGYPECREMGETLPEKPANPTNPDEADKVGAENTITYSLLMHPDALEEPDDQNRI
In words: cell-based or functional assay.

Experiment [2] concerns the target T2, human FcγRIIA (NM_021642) expressed on cells (human, UniProt P12318 36-317).
T2 sequence: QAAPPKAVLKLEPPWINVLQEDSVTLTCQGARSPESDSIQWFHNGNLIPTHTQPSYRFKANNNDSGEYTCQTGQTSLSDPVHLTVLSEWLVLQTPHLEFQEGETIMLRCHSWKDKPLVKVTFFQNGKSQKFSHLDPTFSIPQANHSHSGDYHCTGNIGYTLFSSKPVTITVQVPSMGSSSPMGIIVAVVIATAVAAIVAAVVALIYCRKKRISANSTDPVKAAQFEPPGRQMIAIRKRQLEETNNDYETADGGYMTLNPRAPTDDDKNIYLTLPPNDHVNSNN
In words: cell-based or functional assay.

The target of experiment [3] is T3, human FcγRIIIA (NM_000569) expressed on cells (human, UniProt P08637 17-254). The experiment is described as follows: cell-based or functional assay.
T3 sequence (P08637 17-254 limits assumed): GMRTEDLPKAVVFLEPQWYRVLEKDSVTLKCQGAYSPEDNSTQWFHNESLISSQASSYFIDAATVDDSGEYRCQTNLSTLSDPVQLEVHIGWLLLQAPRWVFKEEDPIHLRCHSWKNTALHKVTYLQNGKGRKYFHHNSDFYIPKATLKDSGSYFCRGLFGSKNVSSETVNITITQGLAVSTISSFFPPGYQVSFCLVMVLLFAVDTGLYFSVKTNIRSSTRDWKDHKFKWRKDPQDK
Experiment [4] deals with T4, FcγRIIA protein (human, UniProt P12318 36-217, biotinylated (SureLINK Biotin Kit) in the ELISA of Example 1).
T4 sequence: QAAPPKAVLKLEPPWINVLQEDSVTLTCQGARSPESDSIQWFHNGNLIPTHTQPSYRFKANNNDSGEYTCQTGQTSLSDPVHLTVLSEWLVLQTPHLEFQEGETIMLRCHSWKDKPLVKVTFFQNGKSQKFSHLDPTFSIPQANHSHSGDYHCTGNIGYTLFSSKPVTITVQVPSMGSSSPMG
In words: cell-based or functional assay.

Experiment [5] deals with T5, FcγRIIB protein (human, UniProt P31994 43-217, biotinylated (SureLINK Biotin Kit) in the ELISA of Example 1).
T5 sequence: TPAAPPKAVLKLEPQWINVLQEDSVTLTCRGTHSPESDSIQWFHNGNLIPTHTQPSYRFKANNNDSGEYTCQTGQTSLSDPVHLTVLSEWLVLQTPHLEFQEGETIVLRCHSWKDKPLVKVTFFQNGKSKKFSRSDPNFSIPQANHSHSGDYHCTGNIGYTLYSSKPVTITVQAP
In words: cell-based or functional assay.

For experiment [6], the target named is T6, human OX40 expressed on HEK-Blue: OX40 cells (human, UniProt P43489 29-277).
T6 construct: also called CD134
T6 sequence: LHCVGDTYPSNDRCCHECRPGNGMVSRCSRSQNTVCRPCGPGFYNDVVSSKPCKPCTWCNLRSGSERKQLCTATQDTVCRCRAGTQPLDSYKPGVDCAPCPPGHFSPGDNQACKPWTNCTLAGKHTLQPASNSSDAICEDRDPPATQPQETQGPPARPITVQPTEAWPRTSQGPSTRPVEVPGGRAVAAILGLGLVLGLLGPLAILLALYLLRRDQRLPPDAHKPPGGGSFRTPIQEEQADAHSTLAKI
In words: flow cytometry; HEK-Blue: OX40 cells. The gist of the method: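 HEK-Blue Null 1 cells stably transfected with human OX40 were blocked, then incubated with mAbtyrin for 1.5 h at 4 °C. Binding was detected with a PE anti-human IgG F(ab′)₂ secondary, gating on DRAQ7-excluding live cells and taking geometric mean fluorescence. EC50 came from nonlinear regression versus log antibody concentration.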
(In general: In flow cytometry, cells or beads pass a laser one at a time.)

Experiment [7] deals with T7, human FcγRI (NM_000566) expressed on cells (human, UniProt P12314 16-374).
T7 construct: Transiently expressed on Expi293F cells
T7 sequence (P12314 16-374 limits assumed): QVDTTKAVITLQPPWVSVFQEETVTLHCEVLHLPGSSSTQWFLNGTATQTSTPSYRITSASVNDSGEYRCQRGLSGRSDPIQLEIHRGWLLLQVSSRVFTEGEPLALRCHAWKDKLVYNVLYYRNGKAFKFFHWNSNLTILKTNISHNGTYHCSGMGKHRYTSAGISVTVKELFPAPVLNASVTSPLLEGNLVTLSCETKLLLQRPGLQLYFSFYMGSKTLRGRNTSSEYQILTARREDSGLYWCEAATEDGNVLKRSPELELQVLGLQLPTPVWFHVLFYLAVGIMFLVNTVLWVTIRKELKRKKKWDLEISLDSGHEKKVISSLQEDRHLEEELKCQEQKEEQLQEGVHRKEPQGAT
The experiment is described as follows: flow cytometry; Expi293F cells transfected with FcγRI. Here is the method: (§1) Plasmids expressing cDNAs encoding human FcγRI (NM_000566) (SEQ ID NO: 44), FcγRIIA (NM_021642) (SEQ ID NO: 2), FcγRIIB (NM_004001) (SEQ ID NO: 3), and FcγRIIIA (NM_000569) (SEQ ID NO: 45) (Origene) were transiently transfected into Expi293F cells by ExpiFectamine293 transfection kit (Life Technologies). Flow cytometry assays were performed 48 h after transfection.
(§2) 2×10⁵ cells per well were seeded in 96-well plate and blocked in BSA Stain Buffer (BD Biosciences, San Jose, USA) for 30 min at 4° C. Cells were incubated with test mAbtyrin on ice for 1.5 h at 4° C. After being washed twice with BSA stain buffer, the cells were incubated with R-PE labeled anti-human or anti-mouse IgG secondary antibody (Jackson Immunoresearch Laboratories) for 45 min at 4° C. The cells were washed twice in stain buffer and then resuspended in 150 μL of Stain Buffer containing 1:200 diluted DRAQ7 live/dead stain (Cell Signaling Technology, Danvers, USA). PE and DRAQ7 signals of the stained cells were detected by Miltenyi MACSQuant flow cytometer (Miltenyi Biotec, Auburn, USA) using B2 and B4 channel respectively. Live cells were gated on DRAQ7 exclusion and the geometric mean fluorescence signals were determined for at least 10,000 live events collected. FlowJo software (Tree Star) was used for analysis. Data was plotted as the logarithm of antibody concentration versus mean fluorescence signals. Nonlinear regression analysis was performed by GraphPad Prism 6 (GraphPad Software, Inc.) and EC₅₀ values were calculated.

The target of experiment [8] is T2, human FcγRIIA (NM_021642) expressed on …. The experiment is described as follows: flow cytometry; Expi293F cells transfected with FcγRIIA. Here is the method:
as §1, §2

For experiment [9], the target named is T1, human FcγRIIB (NM_004001) expressed on …. The experiment is described as follows: flow cytometry; Expi293F cells transfected with FcγRIIB. The procedure:
as §1, §2

The target of experiment [10] is T3, human FcγRIIIA (NM_000569) expressed on …. In words: flow cytometry; Expi293F cells transfected with FcγRIIIA. Here is the method:
as §1, §2

The target in experiment [11] is T1, human FcγRIIB (NM_004001) expressed on …. The experiment is described as follows: flow cytometry; Raji cells (express predominantly FcγRIIB). The procedure: as §2
Raji cell is a cell line derived from B cells that express predominantly FcγRIIB. The binding of mAbtyrins on Raji cells were investigated by flow cytometry assay described for testing mAbtyrin binding to FcγR. Binding of the mAbtyrins were detected by flow cytometry using a PE-labeled Goat F(ab′) against Human IgG(γ).

B1: OX40SF2IgG2sigma_R2BS29_LC-C (bispecific antibody)
heavy: QVQLVQSGAEVKKPGSSVKVSCKASGYTFKDYTMHWVRQAPGQGLEWIGGIYPNNGGSTYNQNFKDRVTLTADKSTSTAYMELSSLRSEDTAVYYCARMGYHGPHLDFDVWGQGTTVTVSSASTKGPSVFPLAPCSRSTSESTAALGCLVKDYFPEPVTVSWNSGALTSGVHTFPAVLQSSGLYSLSSVVTVPSSNFGTQTYTCNVDHKPSNTKVDKTVERKCCVECPPCPAPPAAASSVFLFPPKPKDTLMISRTPEVTCVVVDVSAEDPEVQFNWYVDGVEVHNAKTKPREEQFNSTFRVVSVLTVLHQDWLNGKEYKCKVSNKGLPSSIEKTISKTKGQPREPQVYTLPPSREEMTKNQVSLTCLVKGFYPSDIAVEWESNGQPENNYKTTPPMLDSDGSFFLYSKLTVDKSRWQQGNVFSCSVMHEALHNHYTQKSLSLSPGK
light: DIQMTQSPSSLSASVGDRVTITCKASQDVGAAVAWYQQKPGKAPKLLIYWASTRHTGVPSRFSGSGSGTDFTLTISSLQPEDFATYYCQQYINYPLTFGGGTKVEIKRTVAAPSVFIFPPSDEQLKSGTASVVCLLNNFYPREAKVQWKVDNALQSGNSQESVTEQDSKDSTYSLSSTLTLSKADYEKHKVYACEVTHQGLSSPVTKSFNRGECGGGGSGGGGSGGGGSGGGGSMLPAPKNLVVSRVTEDSARLSWTAPDAAFDSFPIYYWEYRVGGEAIVLTVPGSERSYDLTGLKPGTEYFVYINGVKGGEESRPLSAIFTT
notes: mAbtyrin: linker and R2BS29 FN3 domain at the C-terminus of the light chain of OX40SF2IgG2sigma; also called mAbtyrin
B1: in [1], the “% activity at 1 µg/ml with Raji cells (HEK-Blue: OX40 NF-κB reporter)” value turned out to be 76%. Besides, the “ADCP EC50” value in experiment [2] amounted to 0.0165 µg/mL. Also, in experiment [3], the “ADCC (fold activation) at 1 µg/ml” value came to 1 fold. Besides, in experiment [4], the “IFNγ production by activated CD4 T cells, plate-coated FcγRIIA” value was found to be 153 pg/mL. In experiment [4], the “TNFα production by activated CD4 T cells, plate-coated FcγRIIA” value stood at 30 pg/mL. Moreover, the “IFNγ production by activated CD4 T cells, plate-coated FcγRIIb” value in experiment [5] is 89 pg/mL. For the same molecule, the “TNFα production by activated CD4 T cells, plate-coated FcγRIIb” value in [5] is 30 pg/mL. Also, the half-maximal effective concentration (EC50) in experiment [6] was 0.196 µg/mL; in [7] it was more than 10 µg/mL; in [8] it was 0.054 µg/mL; in experiment [9], 0.941 µg/mL; in experiment [10] it was more than 10 µg/mL; in experiment [11], 3.44 µg/mL.

B2: OX40SF2IgG2sigma_R2BS29_HC-N (bispecific antibody)
heavy: LPAPKNLVVSRVTEDSARLSWTAPDAAFDSFPIYYWEYRVGGEAIVLTVPGSERSYDLTGLKPGTEYFVYINGVKGGEESRPLSAIFTTGGGGSGGGGSGGGGSGGGGSQVQLVQSGAEVKKPGSSVKVSCKASGYTFKDYTMHWVRQAPGQGLEWIGGIYPNNGGSTYNQNFKDRVTLTADKSTSTAYMELSSLRSEDTAVYYCARMGYHGPHLDFDVWGQGTTVTVSSASTKGPSVFPLAPCSRSTSESTAALGCLVKDYFPEPVTVSWNSGALTSGVHTFPAVLQSSGLYSLSSVVTVPSSNFGTQTYTCNVDHKPSNTKVDKTVERKCCVECPPCPAPPAAASSVFLFPPKPKDTLMISRTPEVTCVVVDVSAEDPEVQFNWYVDGVEVHNAKTKPREEQFNSTFRVVSVLTVLHQDWLNGKEYKCKVSNKGLPSSIEKTISKTKGQPREPQVYTLPPSREEMTKNQVSLTCLVKGFYPSDIAVEWESNGQPENNYKTTPPMLDSDGSFFLYSKLTVDKSRWQQGNVFSCSVMHEALHNHYTQKSLSLSPGK
light: DIQMTQSPSSLSASVGDRVTITCKASQDVGAAVAWYQQKPGKAPKLLIYWASTRHTGVPSRFSGSGSGTDFTLTISSLQPEDFATYYCQQYINYPLTFGGGTKVEIKRTVAAPSVFIFPPSDEQLKSGTASVVCLLNNFYPREAKVQWKVDNALQSGNSQESVTEQDSKDSTYSLSSTLTLSKADYEKHKVYACEVTHQGLSSPVTKSFNRGEC
notes: mAbtyrin: R2BS29 FN3 domain and linker at the N-terminus of the heavy chain of OX40SF2IgG2sigma; also called mAbtyrin
In the case of B2, the “% activity at 1 µg/ml with Raji cells (HEK-Blue: OX40 NF-κB reporter)” value in experiment [1] amounted to 7%. In experiment [2], the “ADCP EC50” value was 0.012 µg/mL. The “ADCC (fold activation) at 1 µg/ml” value in experiment [3] came to 1 fold. Also, the “IFNγ production by activated CD4 T cells, plate-coated FcγRIIA” value in experiment [4] was found to be 89 pg/mL. The “TNFα production by activated CD4 T cells, plate-coated FcγRIIA” value in experiment [4] came out at 28 pg/mL. Moreover, the “IFNγ production by activated CD4 T cells, plate-coated FcγRIIb” value in experiment [5] was 76 pg/mL. Further, the “TNFα production by activated CD4 T cells, plate-coated FcγRIIb” value in experiment [5] was determined as 29 pg/mL. For the same molecule, the EC50 in experiment [6] is 0.161 µg/mL; in experiment [7], more than 10 µg/mL; in experiment [8] it was 0.042 µg/mL; in experiment [9], 1.01 µg/mL; in experiment [10] it was more than 10 µg/mL; in experiment [11], 1.2 µg/mL.

Source of the values: patent US20190062420A1 (Janssen / Centocor, published 2019).
